Experimental data published in patent US20230372448A1, “THERAPEUTIC USE OF LONG-ACTING CONJUGATE OF TRIPLE AGONIST ACTING ON ALL OF GLUCAGON, GLP-1 AND GIP RECEPTORS AGAINST MULTIPLE SCLEROSIS” (HANMI PHARM. CO. ,LTD., priority 2020, published 2023).
Positions of bridges follow the written chain, without caps; N, C: chain ends. Non-standard residues stand in square brackets, D forms with d. No end group written: not given here. *: point of attachment. Acetyl(2-(4-imidazolyl)) = O=C(Cc1c[nH]cn1)*; Aib = CC(C)(N)C(=O)O

T1: human GIP receptor (human, UniProt P48546 22-466)
T1 sequence (looked up): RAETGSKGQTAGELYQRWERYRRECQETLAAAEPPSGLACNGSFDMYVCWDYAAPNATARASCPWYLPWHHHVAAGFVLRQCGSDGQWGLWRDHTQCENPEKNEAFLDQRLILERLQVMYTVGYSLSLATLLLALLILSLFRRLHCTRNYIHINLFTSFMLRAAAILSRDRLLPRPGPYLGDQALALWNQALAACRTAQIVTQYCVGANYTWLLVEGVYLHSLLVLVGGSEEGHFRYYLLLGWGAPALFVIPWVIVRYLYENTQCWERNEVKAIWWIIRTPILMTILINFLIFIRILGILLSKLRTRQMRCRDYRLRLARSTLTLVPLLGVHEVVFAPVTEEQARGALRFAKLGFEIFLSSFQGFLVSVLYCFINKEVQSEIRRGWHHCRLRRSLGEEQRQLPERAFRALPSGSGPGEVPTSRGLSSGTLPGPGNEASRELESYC


target: human GLP-1 receptor (human, UniProt P43220 24-463); experiment: cell-based or functional assay

First: H[Aib]QGTFTSDVSSYLLGQQQKEFIAWLVKGC (not fully specified) [triple agonist of SEQ ID NO: 4]
Second: H[Aib]EGTFTSDYSIAMDEIHQKDFVDWLLAEC (bridge 16-20; not fully specified) [triple agonist of SEQ ID NO: 54]
The “In vitro activity (%) compared with native peptide: vs GLP-1” value (“In vitro activity (%) … vs GLP-1” below) of the first is lower: 8.5% for the first, 30.6% for the second.

First: H[Aib]QGTFTSDYSKYLCEKRQKEFVQWLLNGGPSSGAPPPSG (bridge 16-20) [triple agonist of SEQ ID NO: 36]
Second: H[Aib]QGTFTSDKSKYLDECAAQDFVQWLLDGGPSSGAPPPS (not fully specified) [triple agonist of SEQ ID NO: 41]
The “In vitro activity (%) … vs GLP-1” value of the first is higher: 37.4% for the first, 34.3% for the second.

Compared with H[Aib]QGTFTSDYSKYLDEKRQKEFVNWLLAQKC (bridge 16-20; not fully specified) [triple agonist of SEQ ID NO: 34], H[Aib]QGTFTSDYSKYLDEKRAKEFVQWLLDHHPSSGQPPPSC (bridge 16-20; not fully specified) [triple agonist of SEQ ID NO: 50] is higher in “In vitro activity (%) … vs GLP-1” value: 19.1% for the first, 67.4% for the second.

Going from H[Aib]QGTFTSDVSSYLDGQAAKEFIAWLVKGC (not fully specified) [triple agonist of SEQ ID NO: 1] to {Acetyl(2-(4-imidazolyl))}-[Aib]QGTFTSDYSICMDEIHQKDFVNWLLNTK (bridge 15-19; not fully specified) [triple agonist of SEQ ID NO: 49], the “In vitro activity (%) … vs GLP-1” value rises from 3.2% to 29.8%.

First: H[Aib]QGTFTSDYSIAMDEIHQKDFVNWLLNTKC (bridge 16-20; not fully specified) [triple agonist of SEQ ID NO: 35]
Second: HGQGTFTSDCSKQLDGQAAQEFVAWLLAGGPSSGAPPPS (ends and bridges not checked) [triple agonist of SEQ ID NO: 44]
The “In vitro activity (%) … vs GLP-1” value of the first is higher: 7.5% for the first, 1.3% for the second.

First: HGQGTFTSDCSKYLDGQRAQDFVNWLLAGGPSSGAPPPS (ends and bridges not checked) [triple agonist of SEQ ID NO: 48]
Second: HGQGTFTSDCSKYMDGQAAQDFVAWLLAGGPSSGAPPPS (ends and bridges not checked) [triple agonist of SEQ ID NO: 45]
The “In vitro activity (%) … vs GLP-1” value of the first is lower: 1.5% for the first, 6.6% for the second.

First: HGQGTFTSDCSKYLDEQHAQEFVAWLLAGGPSSGAPPPS (ends and bridges not checked) [triple agonist of SEQ ID NO: 46]
Second: HGQGTFTSDCSKYLDGQRAQEFVAWLLAGGPSSGAPPPS (ends and bridges not checked) [triple agonist of SEQ ID NO: 47]
The “In vitro activity (%) … vs GLP-1” value of the first is lower: 1.4% for the first, 2.4% for the second.

target: human GCG receptor (human, UniProt P47871 26-477); experiment: cell-based or functional assay
Sequence (P47871 26-477): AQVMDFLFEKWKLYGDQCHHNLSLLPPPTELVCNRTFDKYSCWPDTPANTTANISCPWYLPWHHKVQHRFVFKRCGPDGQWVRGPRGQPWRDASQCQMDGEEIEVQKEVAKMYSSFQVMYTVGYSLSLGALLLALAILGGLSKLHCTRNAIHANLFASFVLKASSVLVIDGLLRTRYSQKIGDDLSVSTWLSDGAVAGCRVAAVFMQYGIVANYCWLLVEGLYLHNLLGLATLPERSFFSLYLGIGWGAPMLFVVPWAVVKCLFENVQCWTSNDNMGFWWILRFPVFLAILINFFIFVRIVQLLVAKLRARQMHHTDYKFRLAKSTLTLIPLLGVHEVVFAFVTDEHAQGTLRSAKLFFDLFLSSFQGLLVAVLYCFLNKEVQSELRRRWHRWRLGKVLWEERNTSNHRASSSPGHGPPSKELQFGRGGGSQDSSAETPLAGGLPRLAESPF

First: H[Aib]QGTFTSDVSSYLLGQQQKEFIAWLVKGC (not fully specified) [triple agonist of SEQ ID NO: 4]
Second: H[Aib]EGTFTSDYSIAMDEIHQKDFVDWLLAEC (bridge 16-20; not fully specified) [triple agonist of SEQ ID NO: 54]
The “In vitro activity (%) compared with native peptide: vs Glucagon” value (“In vitro activity (%) … vs Glucagon” below) of the first is lower: less than 0.1% for the first, 1.4% for the second.

First: H[Aib]QGTFTSDYSKYLCEKRQKEFVQWLLNGGPSSGAPPPSG (bridge 16-20) [triple agonist of SEQ ID NO: 36]
Second: H[Aib]QGTFTSDKSKYLDECAAQDFVQWLLDGGPSSGAPPPS (not fully specified) [triple agonist of SEQ ID NO: 41]
The “In vitro activity (%) … vs Glucagon” value of the first is higher: 0.39% for the first, less than 0.1% for the second.

Compared with H[Aib]QGTFTSDYSKYLDEKRQKEFVNWLLAQKC (bridge 16-20; not fully specified) [triple agonist of SEQ ID NO: 34], H[Aib]QGTFTSDYSKYLDEKRAKEFVQWLLDHHPSSGQPPPSC (bridge 16-20; not fully specified) [triple agonist of SEQ ID NO: 50] is higher in “In vitro activity (%) … vs Glucagon” value: 0.92% for the first, 50.5% for the second.

H[Aib]QGTFTSDVSSYLDGQAAKEFIAWLVKGC (not fully specified) [triple agonist of SEQ ID NO: 1] and {Acetyl(2-(4-imidazolyl))}-[Aib]QGTFTSDYSICMDEIHQKDFVNWLLNTK (bridge 15-19; not fully specified) [triple agonist of SEQ ID NO: 49] cannot be ordered by “In vitro activity (%) … vs Glucagon” value: less than 0.1% for the first, less than 0.1% for the second.

H[Aib]QGTFTSDYSIAMDEIHQKDFVNWLLNTKC (bridge 16-20; not fully specified) [triple agonist of SEQ ID NO: 35] and HGQGTFTSDCSKQLDGQAAQEFVAWLLAGGPSSGAPPPS (ends and bridges not checked) [triple agonist of SEQ ID NO: 44] cannot be ordered by “In vitro activity (%) … vs Glucagon” value: less than 0.1% for the first, less than 0.1% for the second.

HGQGTFTSDCSKYLDGQRAQDFVNWLLAGGPSSGAPPPS (ends and bridges not checked) [triple agonist of SEQ ID NO: 48] and HGQGTFTSDCSKYMDGQAAQDFVAWLLAGGPSSGAPPPS (ends and bridges not checked) [triple agonist of SEQ ID NO: 45] cannot be ordered by “In vitro activity (%) … vs Glucagon” value: less than 0.1% for the first, less than 0.1% for the second.

HGQGTFTSDCSKYLDEQHAQEFVAWLLAGGPSSGAPPPS (ends and bridges not checked) [triple agonist of SEQ ID NO: 46] and HGQGTFTSDCSKYLDGQRAQEFVAWLLAGGPSSGAPPPS (ends and bridges not checked) [triple agonist of SEQ ID NO: 47] cannot be ordered by “In vitro activity (%) … vs Glucagon” value: less than 0.1% for the first, less than 0.1% for the second.

target: T1, human GIP receptor; experiment: cell-based or functional assay

Going from H[Aib]QGTFTSDVSSYLLGQQQKEFIAWLVKGC (not fully specified) [triple agonist of SEQ ID NO: 4] to H[Aib]EGTFTSDYSIAMDEIHQKDFVDWLLAEC (bridge 16-20; not fully specified) [triple agonist of SEQ ID NO: 54], the “In vitro activity (%) compared with native peptide: vs GIP” value (shortened to “In vitro activity (%) … vs GIP”) rises from less than 0.1% to 0.1%.

Going from H[Aib]QGTFTSDYSKYLCEKRQKEFVQWLLNGGPSSGAPPPSG (bridge 16-20) [triple agonist of SEQ ID NO: 36] to H[Aib]QGTFTSDKSKYLDECAAQDFVQWLLDGGPSSGAPPPS (not fully specified) [triple agonist of SEQ ID NO: 41], the “In vitro activity (%) … vs GIP” value falls from 0.2% to less than 0.1%.

First: H[Aib]QGTFTSDYSKYLDEKRQKEFVNWLLAQKC (bridge 16-20; not fully specified) [triple agonist of SEQ ID NO: 34]
Second: H[Aib]QGTFTSDYSKYLDEKRAKEFVQWLLDHHPSSGQPPPSC (bridge 16-20; not fully specified) [triple agonist of SEQ ID NO: 50]
The “In vitro activity (%) … vs GIP” value of the first is lower: 0.6% for the first, 2.7% for the second.

Compared with H[Aib]QGTFTSDVSSYLDGQAAKEFIAWLVKGC (not fully specified) [triple agonist of SEQ ID NO: 1], {Acetyl(2-(4-imidazolyl))}-[Aib]QGTFTSDYSICMDEIHQKDFVNWLLNTK (bridge 15-19; not fully specified) [triple agonist of SEQ ID NO: 49] is higher in “In vitro activity (%) … vs GIP” value: less than 0.1% for the first, 3.3% for the second.

Going from H[Aib]QGTFTSDYSIAMDEIHQKDFVNWLLNTKC (bridge 16-20; not fully specified) [triple agonist of SEQ ID NO: 35] to HGQGTFTSDCSKQLDGQAAQEFVAWLLAGGPSSGAPPPS (ends and bridges not checked) [triple agonist of SEQ ID NO: 44], the “In vitro activity (%) … vs GIP” value falls from 1.3% to less than 0.1%.

HGQGTFTSDCSKYLDGQRAQDFVNWLLAGGPSSGAPPPS (ends and bridges not checked) [triple agonist of SEQ ID NO: 48] and HGQGTFTSDCSKYMDGQAAQDFVAWLLAGGPSSGAPPPS (ends and bridges not checked) [triple agonist of SEQ ID NO: 45] cannot be ordered by “In vitro activity (%) … vs GIP” value: less than 0.1% for the first, less than 0.1% for the second.

HGQGTFTSDCSKYLDEQHAQEFVAWLLAGGPSSGAPPPS (ends and bridges not checked) [triple agonist of SEQ ID NO: 46] and HGQGTFTSDCSKYLDGQRAQEFVAWLLAGGPSSGAPPPS (ends and bridges not checked) [triple agonist of SEQ ID NO: 47] cannot be ordered by “In vitro activity (%) … vs GIP” value: less than 0.1% for the first, less than 0.1% for the second.
